First the molecules themselves.
B1: G/T mismatch-specific thymine DNA glycosylase (Mus musculus), P56581 (parent)
chain: MDAEAARSYSLEQVQALYSFPFQQMMAEVPNMAVTTGQQVPAVAPNMATVTEQQVPEDAPVQEPAPEAPKRRKRKPRAAEPQEPVEPKKPATSKKSGKSTKSKEKQEKITDAFKVKRKVDRFNGVSEAELLTKTLPDILTFNLDIVIIGINPGLMAAYKGHHYPGPGNHFWKCLFMSGLSEVQLNHMDDHTLPGKYGIGFTNMVERTTPGSKDLSSKEFREGGRILVQKLQKYQPRIAVFNGKCIYEIFSKEVFGVKVKNLEFGLQPHKIPDTETLCYVMPSSSARCAQFPRAQDKVHYYIKLKDLRDQLKGIERNADVQEVQYTFDLQLAQEDAKKMAVKEEKYDPGYEAAYGGAYGENPCNGEPCGIASNGLTAHSAEPRGEAAPSDVPNGQWMAQSFAEQIPSFNNCGTREQEEESHA

Variants of B1 are the subject of one assay. As to conditions: with ncoa1_human NCOA1, Q15788.
Chain of ncoa1_human NCOA1, Q15788 (Q15788 whole entry): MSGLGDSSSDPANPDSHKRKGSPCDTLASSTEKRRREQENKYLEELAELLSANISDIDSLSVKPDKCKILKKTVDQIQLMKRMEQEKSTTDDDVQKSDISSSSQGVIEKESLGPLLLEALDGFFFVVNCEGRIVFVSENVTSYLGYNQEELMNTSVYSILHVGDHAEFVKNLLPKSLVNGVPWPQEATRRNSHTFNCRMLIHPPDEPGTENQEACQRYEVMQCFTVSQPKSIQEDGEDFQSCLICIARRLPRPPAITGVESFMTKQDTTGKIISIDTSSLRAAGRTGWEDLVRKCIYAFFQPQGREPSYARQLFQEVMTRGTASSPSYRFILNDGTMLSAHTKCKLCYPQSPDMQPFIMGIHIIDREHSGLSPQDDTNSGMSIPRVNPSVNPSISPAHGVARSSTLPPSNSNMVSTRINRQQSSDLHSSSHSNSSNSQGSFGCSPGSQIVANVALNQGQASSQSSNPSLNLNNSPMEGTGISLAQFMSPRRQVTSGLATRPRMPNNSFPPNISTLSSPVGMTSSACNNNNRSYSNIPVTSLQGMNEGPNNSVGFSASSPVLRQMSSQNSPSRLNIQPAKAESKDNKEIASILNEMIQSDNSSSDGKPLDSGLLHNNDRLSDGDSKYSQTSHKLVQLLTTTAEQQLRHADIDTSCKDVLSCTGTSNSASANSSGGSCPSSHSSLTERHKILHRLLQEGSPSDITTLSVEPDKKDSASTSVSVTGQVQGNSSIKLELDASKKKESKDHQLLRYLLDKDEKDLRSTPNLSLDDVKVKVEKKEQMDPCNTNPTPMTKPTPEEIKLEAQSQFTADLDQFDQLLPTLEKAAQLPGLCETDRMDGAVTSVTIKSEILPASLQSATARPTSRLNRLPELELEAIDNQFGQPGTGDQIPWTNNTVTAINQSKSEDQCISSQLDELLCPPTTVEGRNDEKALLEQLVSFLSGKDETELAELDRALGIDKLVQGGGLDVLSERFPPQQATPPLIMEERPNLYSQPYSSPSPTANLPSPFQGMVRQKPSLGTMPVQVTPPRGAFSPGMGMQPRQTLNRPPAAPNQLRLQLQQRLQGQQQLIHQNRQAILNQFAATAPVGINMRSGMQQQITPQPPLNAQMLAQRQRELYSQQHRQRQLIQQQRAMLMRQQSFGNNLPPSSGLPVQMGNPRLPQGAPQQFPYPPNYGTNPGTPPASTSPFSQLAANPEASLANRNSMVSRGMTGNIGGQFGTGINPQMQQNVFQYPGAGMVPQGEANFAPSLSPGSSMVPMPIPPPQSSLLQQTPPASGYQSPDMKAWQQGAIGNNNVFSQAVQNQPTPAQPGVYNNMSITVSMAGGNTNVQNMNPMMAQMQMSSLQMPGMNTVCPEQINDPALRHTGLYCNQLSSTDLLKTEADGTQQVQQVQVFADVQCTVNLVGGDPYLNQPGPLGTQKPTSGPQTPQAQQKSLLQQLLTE
As to Y345A;Y349A;Y353A;Y357A, the “effect of a mutation on the interaction” value was “decreasing interaction strength”.
Y353A;Y357A: the “effect of a mutation on the interaction” value is “decreasing interaction strength”.
In the case of Y345A;Y349A, the “effect of a mutation on the interaction” value is recorded as “decreasing interaction strength”.

In the next assay the parent is B1. As to conditions: with ncoa1_human NCOA1, Q15788. This is another data set of the same source.
With D144A;V146A;I147A, the “effect of a mutation on the interaction” value is recorded as “with no effect”.
Consider Y353F;Y357F, for which the “effect of a mutation on the interaction” value is “decreasing interaction strength”.
On to Y345F;Y349F;Y353F;Y357F, for which the “effect of a mutation on the interaction” value is listed as “decreasing interaction strength”.
On to Y345F;Y349F, for which the “effect of a mutation on the interaction” value is on record as “decreasing interaction strength”.
Regarding N151A, the “effect of a mutation on the interaction” value is “with no effect”.

The values above are taken from IntAct's records for PubMed 16282588.
